Experiments:
[1] = molecular target: T1, human leukocyte antigen-DR (HLA-DR) on human lymphoma and leukemia cell lines and human lymphocytes (human); assay: indirect flow cytometry, FITC-GAH Fc, Raji cells; none 6.9
[2] = molecular target: T1, human leukocyte antigen-DR (HLA-DR) on …; assay: indirect flow cytometry, Namalwa cells, FITC-GAH; none 2.52
[3] = molecular target: T1, human leukocyte antigen-DR (HLA-DR) on …; assay: indirect FACS, FITC-GAH Fc, Daudi cells; none 3.1
[4] = molecular target: T1, human leukocyte antigen-DR (HLA-DR) on …; assay: indirect flow cytometry, FITC-GAH Fc, SU-DHL-6 cells; none 4.6
[5] = molecular target: T1, human leukocyte antigen-DR (HLA-DR) on …; assay: indirect flow cytometry, FITC-GAH Fc, Daudi cells; none 3.2
[6] = molecular target: T1, human leukocyte antigen-DR (HLA-DR) on …; assay: indirect FACS, FITC-GAH Fc, WSU-FSCCL cells; none 2.6
[7] = molecular target: T1, human leukocyte antigen-DR (HLA-DR) on …; assay: indirect flow cytometry, FITC-GAH Fc, RL cells; none 2.4
[8] = molecular target: T1, human leukocyte antigen-DR (HLA-DR) on …; assay: indirect FACS, FITC-GAH Fc, Raji cells; none 6.8
[9] = molecular target: T1, human leukocyte antigen-DR (HLA-DR) on …; assay: indirect FACS, FITC-GAH Fc, Namalwa cells; none 2.5
[10] = molecular target: T1, human leukocyte antigen-DR (HLA-DR) on …; assay: indirect flow cytometry, FITC-GAH Fc, Ramos cells; none 3.1
[11] = molecular target: T1, human leukocyte antigen-DR (HLA-DR) on …; assay: indirect flow cytometry, FITC-GAH Fc, Namalwa cells; none 2.6
[12] = molecular target: T1, human leukocyte antigen-DR (HLA-DR) on …; assay: indirect FACS, FITC-GAH Fc, SU-DHL-6 cells; none 4.6
[13] = molecular target: T1, human leukocyte antigen-DR (HLA-DR) on …; assay: indirect flow cytometry, FITC-GAH Fc, WSU-FSCCL cells; none 2.7
[14] = molecular target: T1, human leukocyte antigen-DR (HLA-DR) on …; assay: indirect FACS, FITC-GAH Fc, Ramos cells; none 3.1

B1: hL243γ4P (humanized L243, IgG4/K isotype with hinge mutation Ser241Pro) (antibody, V domains shown)
VH: QVQLQQSGSELKKPGASVKVSCKASGFTFTNYGMNWVKQAPGQGLKWMGWINTYTREPTYADDFKGRFAFSLDTSVSTAYLQISSLKADDTAVYFCARDITAVVPTGFDYWGQGSLVTVSS
VL: DIQLTQSPSSLSASVGDRVTITCRASENIYSNLAWYRQKPGKAPKLLVFAASNLADGVPSRFSGSGSGTDYTFTISSLQPEDIATYYCQHFWTTPWAFGGGTKLQIKR
notes: Same V domains as hL243; human γ4 constant region with Ser241Pro (Kabat numbering) in the hinge, human kappa; also called hL243 (IgG4 isotype)
Geometric Mean Fluorescence [1]: 972
GEO MEAN Fluorescence [2]: 324
Geometric Mean Fluorescence [3]: 937
Geometric Mean Fluorescence [4]: 572
Geometric Mean Fluorescence [5]: 937
Geometric Mean Fluorescence [6]: 467
Geometric Mean Fluorescence [7]: 112
Geometric Mean Fluorescence [8]: 972
Geometric Mean Fluorescence [9]: 261
Geometric Mean Fluorescence [10]: 278
Geometric Mean Fluorescence [11]: 261
Geometric Mean Fluorescence [12]: 572
Geometric Mean Fluorescence [13]: 467
Geometric Mean Fluorescence [14]: 278
